The test system of assay [1] is human Eph receptor (EphA1-A8, A10, EphB1-B4, B6). Briefly: Selectivity ELISA for human Eph receptor family. The class given is binding. The following applies: antibody 10 μg/mL. From the text: According to the method described in Example 1, a DNA sequence encoding the signal sequence and the extracellular region of each human Eph receptor (EphA1, EphA2, EphA3, EphA4, EphA5, EphA6, EphA7, EphA8, EphA10, EphB1, EphB2, EphB3, EphB4, and EphB6) was amplified by RT-PCR using tissue-derived total RNA and cloned into a pENTR1A vector (Invitrogen/Life Technologies) having a DNA sequence encoding a human IgG1 Fc region and histidine tag. Next, the DNA sequence encoding the signal sequence and the extracellular region of each human Eph receptor, Fc, and histidine tag was transferred to a pcDNA3.1_rfcB vector through LR reaction using Gateway System (Invitrogen/Life Technologies) to construct a vector for the expression of a protein of the extracellular region of each human Eph receptor fused with the human IgG1 Fc region and the His tag (referred to as “Eph receptor extracellular region-Fc-His protein”) (this vector is referred to as “Eph receptor extracellular region-Fc-His protein expression vector”). […]
Antibody A was evaluated for its binding activity against each human Eph receptor according to the following steps.
(§1) Each well of a 96-well plate (Nunc) was coated with a donkey anti-human IgG antibody (Jackson ImmunoResearch Laboratories). […] The absorbance at 450 nm was read using a microplate reader (PerkinElmer).
(In an ELISA, binding on a coated surface is turned into a signal by an enzyme label.)

In assay [2] the test system is mouse Eph receptor (EphA1-A8, A10, EphB1-B4, B6). Briefly: Selectivity ELISA for mouse Eph receptor family. The class given is binding. The conditions noted are these: antibody 10 μg/mL.
Text: According to the method described in Example 1, a DNA sequence encoding the signal sequence and the extracellular region of each mouse Eph receptor (EphA1, EphA3, EphA4, EphA5, EphA6, EphA7, EphA8, EphA10, EphB1, EphB2, EphB3, EphB4, and EphB6) was amplified by RT-PCR using tissue-derived total RNA and cloned into a pENTR1A vector (Invitrogen/Life Technologies) having a DNA sequence encoding a human IgG1 Fc region and histidine tag. Next, the DNA sequence encoding the signal sequence and the extracellular region of each mouse Eph receptor (EphA1, EphA3, EphA4, EphA5, EphA6, EphA7, EphA8, EphA10, EphB1, EphB2, EphB3, EphB4, and EphB6), Fc, and histidine tag was transferred to a pcDNA3.1_rfcB vector through LR reaction using Gateway System (Invitrogen/Life Technologies) to construct each mouse Eph receptor extracellular region-Fc-His protein expression vector. […]
Antibody A was evaluated for its binding activity against each mouse Eph receptor according to the following steps.
as §1

B1: antibody A: mouse anti-EphA4 monoclonal antibody, IgG1/κ; heavy chain variable region SEQ ID NO: 11, light chain variable region SEQ ID NO: 13 (antibody, listed as Mus musculus, V domains shown)
VH: QIQLVQSGPELKKPGETVKISCKASGYTFTDYSMHWVKQAPGKGLKWMGWINTETGEPTYADDFKGRFAFSLETSASTAYLQINNLKNEDTATYFCARIPLYYYGSRYWYFDVWGAGTTVTVSS
VL: DIQMTQSPASLSVSVGETVTITCRASENIYRNLAWYQQKQGKSPQLLVYAATNLADGVPSRFSGSGSGTQYSLKINSLQSEDFGSYYCQHFWGTPWTFGGGTKLEIK
B1: the “binding specificity among human Eph receptor family (in words)” value in assay [1] is on record as “specifically had reaction activity only with human EphA4”. In assay [2], the “binding specificity among mouse Eph receptor family (in words)” value is listed as “specifically had reaction activity only with mouse EphA4”.

For the origin of these results see patent US10428140B2, “Anti-EphA4 antibody” (EISAI R&D MANAGEMENT CO., LTD., priority 2015, dated 2019).
